Assay [1] has as its target GnRHR-DesK191 (human) (UniProt P30968). Description: radioligand binding; transfected MDA-MB-231 cells in 24-well plates, 90 minutes at room temperature with [125I]-Buserelin in the presence or absence of excess (10 uM) unlabeled Buserelin; cells washed, solubilized and counted; relative affinities given as Ki.
Assay [2] shares this target.
Assay [3] deals with endogenous GnRHR of MDA-MB-231 cells (human (endogenous in MDA-MB-231)) (UniProt P30968). The assay is described as follows: radioligand binding; transfected MDA-MB-231 cells in 24-well plates, 90 minutes at room temperature with [125I]-Buserelin in the presence or absence of excess (10 uM) unlabeled Buserelin; cells washed, solubilized and counted; relative affinities given as Ki.

In assay [4] the target is Wild-type gonadotropin-releasing hormone receptor (human) (UniProt P30968). The description is as above.

As usually defined, the Ki is a measure of affinity in units of concentration, obtained from inhibition or displacement.

Regarding [125I]-Buserelin (peptide), in the assay with GnRHR-DesK191 (human) [1], the [125I]-Buserelin binding, percent of WT levels (% of WT levels) came to 139.
For Buserelin (peptide), the Buserelin-stimulated inositol phosphate (IP) production in transfected MDA-MB-231 cells, relative to WT GnRHR (% of WT levels) with GnRHR-DesK191 (human) [2] is 590. The Ki is 1030 nM in assay [3], 500 nM in assay [4] and 700 nM in the assay with GnRHR-DesK191 (human) [1].

The record behind these values is paper PMC3518142.
